Results reported in publication doi:10.1101/2022.03.24.485560.

Target: TRIM7 PRY-SPRY domain (338-511 aa) (human) (UniProt Q9C029)
Assay: ITC

Row | Substance | Kd
1 | CVB3 2C (117-329 aa) (domain or fragment) | 6 µM
2 | C-terminal peptide fragment of glycogenin-1 (GN1) | 8 µM
3 | CVB3 2C-derived peptide (319-329 aa) | 3 µM
4 | C-terminal peptide fragment of RACO-1 | 10 µM
